Literature values as cited in publication PMC9713128.

Biological target: HBcAg (Hepatitis B virus) (UniProt P03149)
Assay: solution binding assay

UniProt P03149, sequence (P03149 whole entry): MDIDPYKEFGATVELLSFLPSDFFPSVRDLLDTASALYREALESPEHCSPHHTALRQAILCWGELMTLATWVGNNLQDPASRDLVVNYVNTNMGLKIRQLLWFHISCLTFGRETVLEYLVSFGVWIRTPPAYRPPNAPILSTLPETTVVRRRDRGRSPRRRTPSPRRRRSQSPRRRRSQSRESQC

Row | Substance | Kd [µM]
1 | cyclic peptide C-WSFFSNI-C | < 0.025
2 | cyclic peptide C-WPFWGPW-C | < 0.025
